Measured values reported in US20260207766A1 (Bristol-Myers Squibb, published 2026).
Changes are numbered by the printed parent chain.

T1: human CEACAM5 on cells (human, UniProt P06731 35-685)
T1 construct: Endogenous on MKN45, Ls174T, BxPC-3; overexpressed on HCT116; also called huCEACAM5; HCT116-huCEACAM5
T1 sequence: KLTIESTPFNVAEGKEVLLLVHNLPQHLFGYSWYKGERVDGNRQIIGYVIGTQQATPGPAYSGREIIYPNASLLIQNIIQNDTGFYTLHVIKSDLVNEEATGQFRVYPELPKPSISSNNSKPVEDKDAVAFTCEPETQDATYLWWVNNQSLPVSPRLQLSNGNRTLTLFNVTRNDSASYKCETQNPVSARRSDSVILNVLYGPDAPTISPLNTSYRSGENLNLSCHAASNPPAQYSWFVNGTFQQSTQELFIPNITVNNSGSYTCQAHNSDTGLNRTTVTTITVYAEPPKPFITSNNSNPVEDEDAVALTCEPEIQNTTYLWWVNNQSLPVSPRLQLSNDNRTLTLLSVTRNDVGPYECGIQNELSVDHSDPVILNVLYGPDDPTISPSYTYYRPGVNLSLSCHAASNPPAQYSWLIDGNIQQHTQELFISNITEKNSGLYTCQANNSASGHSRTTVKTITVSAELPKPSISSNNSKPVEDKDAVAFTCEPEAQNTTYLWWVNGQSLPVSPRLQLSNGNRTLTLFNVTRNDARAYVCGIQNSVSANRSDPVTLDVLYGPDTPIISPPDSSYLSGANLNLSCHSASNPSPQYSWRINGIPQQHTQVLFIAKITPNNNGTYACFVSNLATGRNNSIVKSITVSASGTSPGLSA

T2: human CEACAM6 on HCT116 cells (human, UniProt P40199 35-320)
T2 construct: whole, on cells; also called HCT116-huCEACAM6
T2 sequence (looked up): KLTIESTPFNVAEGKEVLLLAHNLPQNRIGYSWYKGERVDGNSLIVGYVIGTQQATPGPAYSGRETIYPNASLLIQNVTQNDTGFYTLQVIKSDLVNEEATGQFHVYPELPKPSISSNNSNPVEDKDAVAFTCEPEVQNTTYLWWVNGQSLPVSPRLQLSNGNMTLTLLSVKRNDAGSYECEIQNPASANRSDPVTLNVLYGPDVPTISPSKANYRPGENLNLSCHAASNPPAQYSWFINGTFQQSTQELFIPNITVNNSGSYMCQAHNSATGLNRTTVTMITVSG

T3: full-length human CEACAM5 (recombinant, internally generated) (human, UniProt P06731 35-685, limits assumed)
T3 construct: Printed only as 'full-length'; also called Full-length huCEACAM5; biotinylated human CEACAM5
T3 sequence: T1 sequence

T4: human CEACAM1 on CHO-S cells (human, UniProt P13688 35-526)
T4 construct: whole, on cells; also called CHO-S-huCEACAM1
T4 sequence (looked up): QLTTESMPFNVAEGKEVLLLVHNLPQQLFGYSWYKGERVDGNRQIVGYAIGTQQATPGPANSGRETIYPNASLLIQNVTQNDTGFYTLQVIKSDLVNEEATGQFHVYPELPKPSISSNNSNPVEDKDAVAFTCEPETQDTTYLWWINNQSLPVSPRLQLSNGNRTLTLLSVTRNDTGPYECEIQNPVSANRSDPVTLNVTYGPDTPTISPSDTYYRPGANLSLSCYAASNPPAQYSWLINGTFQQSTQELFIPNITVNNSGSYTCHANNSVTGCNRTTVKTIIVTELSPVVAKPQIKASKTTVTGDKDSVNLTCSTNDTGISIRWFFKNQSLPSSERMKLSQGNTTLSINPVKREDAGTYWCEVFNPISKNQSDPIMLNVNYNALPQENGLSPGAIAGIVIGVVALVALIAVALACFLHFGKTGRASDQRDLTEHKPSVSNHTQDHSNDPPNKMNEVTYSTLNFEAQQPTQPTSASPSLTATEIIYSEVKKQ

T5: human CEACAM8 (R&D Systems catalog #9639-CM-050) (human, UniProt P31997 35-320, limits assumed)
T5 sequence (looked up): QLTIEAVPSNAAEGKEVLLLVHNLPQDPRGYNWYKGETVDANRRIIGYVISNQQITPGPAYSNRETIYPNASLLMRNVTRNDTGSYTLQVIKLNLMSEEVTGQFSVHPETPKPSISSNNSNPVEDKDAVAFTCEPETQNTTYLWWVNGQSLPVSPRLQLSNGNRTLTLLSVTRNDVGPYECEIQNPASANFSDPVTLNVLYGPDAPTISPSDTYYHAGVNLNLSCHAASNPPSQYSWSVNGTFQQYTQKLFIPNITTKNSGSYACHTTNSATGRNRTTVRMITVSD

T6: human CEACAM7 (R&D Systems catalog #9010-CM-050) (human, UniProt Q14002 36-242, limits assumed)
T6 sequence (looked up): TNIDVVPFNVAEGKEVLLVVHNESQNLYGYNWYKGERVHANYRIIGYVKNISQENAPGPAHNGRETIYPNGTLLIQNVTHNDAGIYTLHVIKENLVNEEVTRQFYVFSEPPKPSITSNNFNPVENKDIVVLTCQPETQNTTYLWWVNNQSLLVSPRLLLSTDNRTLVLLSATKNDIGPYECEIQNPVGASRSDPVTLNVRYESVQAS

B1: MBP003 (antibody, V domains shown)
VH: QVQLVESGGGVVQPGRSLRLSCAASGITFSSHGMHWVRQAPGKGLEWVTFISYDGSYKSYVDSVKGRFTISRDNSKNTLYLQMNSLRAEDTAVYYCATGLTGTGAFDIWGQGTMVTVSS
VL: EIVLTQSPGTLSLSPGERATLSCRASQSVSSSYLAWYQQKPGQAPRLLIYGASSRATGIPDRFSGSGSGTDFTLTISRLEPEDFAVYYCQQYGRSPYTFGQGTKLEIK
notes: also called hIgG1 form of MBP004
B2: MBP004 (antibody, V domains shown)
VH: B1 VH
VL: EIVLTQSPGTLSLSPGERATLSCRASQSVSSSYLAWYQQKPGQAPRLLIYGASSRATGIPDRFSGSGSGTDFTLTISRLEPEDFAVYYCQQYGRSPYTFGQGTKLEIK
B3: MBP002 (antibody, IgG1, V domains shown)
VH: B1 VH with G104N, F106L
VL: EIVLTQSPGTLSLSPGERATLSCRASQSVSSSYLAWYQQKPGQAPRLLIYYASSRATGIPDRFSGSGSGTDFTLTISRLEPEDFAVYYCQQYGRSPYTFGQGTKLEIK
notes: also called hIgG1 form of MBP008
B4: MBP005 (antibody, V domains shown)
VH: B1 VH with T28Y
VL: not shown
B5: MBP006 (antibody, V domains shown)
VH: B1 VH with K58I, F106N
VL: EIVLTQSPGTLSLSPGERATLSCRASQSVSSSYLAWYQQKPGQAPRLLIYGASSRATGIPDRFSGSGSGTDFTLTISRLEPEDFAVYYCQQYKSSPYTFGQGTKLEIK
B6: MBP007 (antibody, IgG1, V domains shown)
VH: B1 VH with T28Y, F106N
VL: EIVLTQSPGTLSLSPGERATLSCRASQSVSSSYLAWYQQKPGQAPRLLIYGASSRATGIPDRFSGSGSGTDFTLTISRLEPEDFAVYYCQQNKPSPYTFGQGTKLEIK
B7: MBP008 (antibody, IgG1, V domains shown)
VH: B1 VH with G104N, F106L
VL: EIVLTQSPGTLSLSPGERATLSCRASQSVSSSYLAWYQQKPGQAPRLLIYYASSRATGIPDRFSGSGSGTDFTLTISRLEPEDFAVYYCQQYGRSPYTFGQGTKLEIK
B8: MBP009 (antibody, IgG1, V domains shown)
VH: B1 VH with T28Y
VL: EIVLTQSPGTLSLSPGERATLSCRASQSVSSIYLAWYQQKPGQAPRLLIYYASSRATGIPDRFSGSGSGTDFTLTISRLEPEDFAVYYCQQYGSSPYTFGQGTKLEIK
B9: MBP010 (antibody, IgG1, V domains shown)
VH: B1 VH with G55S
VL: B6 VL with P94R
B10: MBP011 (antibody, IgG1, V domains shown)
VH: B1 VH with Y57I
VL: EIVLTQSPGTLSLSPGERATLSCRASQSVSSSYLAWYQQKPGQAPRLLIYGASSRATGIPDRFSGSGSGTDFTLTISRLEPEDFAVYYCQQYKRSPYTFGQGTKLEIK

Legend:
human CEACAM5 on cells [1] = target: T1, human CEACAM5 on cells; assay: FACS on BxPC3 cells
[2] = target: T2, human CEACAM6 on HCT116 cells; assay: flow cytometry on HCT-116 (CEACAM-6) cells
[3] = target: T3, full-length human CEACAM5 (recombinant, …); assay: SPR Biacore, mAb captured on anti-human Fc, full-length antigen analyte, 1:1 fit
Description: The BIACORE® instrument was primed with 1×HBSP+ running buffer (Cytiva catalog no. BR100671). The CM5 chip (Cytiva catalog no. 29149604) was equilibrated to room temperature, and the BIACORE® instrument was re-primed. A human antibody Fc capture kit (Cytiva catalog no. 29234600) was utilized for this analysis. The human antibody Fc capture reagent was immobilized to both flow cells in all 8 flow channels of the CM5 chip via amine-coupling using the following conditions. Immobilization was performed at a temperature of 25° C. The anti-human Fc capture reagent was diluted to a concentration of 25 μg/mL in acetate pH5 buffer. The chip surface was activated by injecting a mixture of 1-ethyl-3-(-3-dimethylaminopropyl) carbodiimide hydrochloride (EDC) and N-hydroxy succinimide (NHS) for 420 seconds at a rate of 10 microliters per minute (uL/min). A concentration (25 ug/mL) of anti-human Fc capture reagent was then injected on the surface for 420 seconds at a rate of 10 uL/min. The remaining chip surface was blocked by injecting ethanolamine for 420 seconds at a rate of 10 uL/min.
The SPR kinetics against full-length human and cyno CEACAM5 were set up as follows. The antibody capture was performed by diluting the antibodies to a concentration of 10 nM in HBSP+ buffer. The 10 nM mAbs were captured for 20 seconds at 5 uL/min to achieve capture levels of approximately 100 RU. […] The association rate was 180 seconds at 30 uL/min. The dissociation rate was 600 seconds at 30 uL/min. Regeneration was performed using two injections of 3M magnesium chloride MgCl₂ for 30 seconds at 30 uL/min. A data fit was performed using a 1:1 binding model with global Rmax. Rmax reflects the maximal response when all ligand is occupied.

human CEACAM5 on cells [4] = target: T1, human CEACAM5 on cells; assay: FACS on LS174T cells
[5] = target: T4, human CEACAM1 on CHO-S cells; assay: flow cytometry on CHO-S (CEACAM-1) cells
human CEACAM5 on cells [6] = target: T1, human CEACAM5 on cells; assay: FACS on MKN45 cells
human CEACAM5 on cells [7] = target: T1, human CEACAM5 on cells; assay: cell-based or functional assay
[8] = target: T5, human CEACAM8 (R&D Systems catalog …); assay: SPR
[9] = target: T6, human CEACAM7 (R&D Systems catalog …); assay: SPR

Binder | EC50 (human CEACAM5 on cells [1]) [nM] | binding result [2] | Kd [3] [nM] | koff [3] [s⁻¹] | kon [3] [M⁻¹ s⁻¹] | EC50 (human CEACAM5 on cells [4]) [nM] | binding result [5] | EC50 (human CEACAM5 on cells [6]) [nM] | Ls174T 5-day cytotoxicity (AUC), antibody conjugated to Compound A' (human CEACAM5 on cells [7]) | MKN45 5-day cytotoxicity (AUC), antibody conjugated to Compound A' (human CEACAM5 on cells [7]) | binding result [8] | binding result [9] | Ls174T 5-day cytotoxicity (AUC) (human CEACAM5 on cells [7]) | MKN45 5-day cytotoxicity (AUC) (human CEACAM5 on cells [7])
B1 | 1.9 | no binding (tested: 300 nM) | 23.4 | 0.000982 | 42000 | 1.7 | no binding (tested: 300 nM) | 2.4 | 18500 | 24400 | no binding | no binding |  | 
B2 |  |  | 17.3 | 0.00131 | 76000 |  |  |  |  |  |  |  | 865 | 2380
B3 | 1.9 | no binding (tested: 300 nM) | 5.26 | 0.000228 | 43300 | 1.5 | no binding (tested: 300 nM) | 2.1 | 18900 | 24100 | no binding | no binding |  | 
B4 |  |  |  |  |  |  |  |  |  |  |  |  | 964 | 2350
B5 |  |  | 6.03 | 0.000513 | 85100 |  |  |  |  |  |  |  | 902 | 2440
B6 |  |  | 21.5 | 0.00171 | 79600 |  |  |  |  |  |  |  | 834 | 2070
B7 |  |  | 5.91 | 0.000527 | 89200 |  |  |  |  |  |  |  | 1140 | 2200
B8 |  |  | 2.78 | 0.00048 | 172000 |  |  |  |  |  |  |  | 1040 | 2200
B9 |  |  | 20.4 | 0.00102 | 50000 |  |  |  |  |  |  |  | 910 | 1360
B10 |  |  | 14.2 | 0.000671 | 47100 |  |  |  |  |  |  |  | 939 | 1770
